The source of these data is the supplement of paper PMC10899765.

Conditions in all cases: 20 nM; 72 h
The test system of data set [1] is MCF10A. Description: 5+ nucleoli phenotype percent effect (relative to siNT 0% and siKIF11 100%); higher = more cells with five or more nucleoli. How it is done:
(§1)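 After 72 h, cells were fixed and stained with Hoechst and anti-fibrillarin, and nucleoli per nucleus were counted with CellProfiler. Values are plate-adjusted percent effect for the one-nucleolus and 5+ nucleoli phenotypes, normalised to siNT (0%) and to the positive controls siNOL11 or siKIF11 (100%), as the mean of biological triplicates. Percent viability is the nuclei count relative to siNT.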

Data set [2] relates to MCF10A. Description: one-nucleolus phenotype percent effect (relative to siNT 0% and siNOL11 100%); higher = more cells with one nucleolus (ribosome biogenesis inhibition). On the procedure:
as §1

Data set [3] relates to MCF10A. Description: percent viability (nuclei count relative to siNT); higher = more viable cells. On the procedure:
as §1

Take “AAAAGUGCUUACAGUGCAGGUAG [hsa-miR-106a-5p]”: in the data set with MCF10A [1], the “5+ nucleoli phenotype percent effect” value is 22.1%. Further, the “one-nucleolus phenotype percent effect” value in the data set with MCF10A [2] was -17.6%. Besides, the percent viability in the data set on MCF10A [3] is 48.8%.
The like results for UUAUUGUCACGUUCUGAUU [hsa-miR-5701] were, in that order, 3.43%, 4.81% and 22.2%.
The like results for “UAUGGAGUGGACUUUCAGCUGGC [hsa-miR-6514-5p]” were, in that order, 38.3%, -0.808% and 75%.
Regarding UGAGCUAAAUGUGUGCUGGGA [hsa-miR-610], the “5+ nucleoli phenotype percent effect” value with MCF10A [1] was found to be 20.7%. Also, the “one-nucleolus phenotype percent effect” value in the data set with MCF10A [2] is -14.8%. Moreover, the percent viability with MCF10A [3] was 131%.
The like results for AUUGACACCUCUGUGAGUGGA [hsa-miR-514b-3p] were, in that order, -12.5%, 16.1% and 32.6%.
For the sequence “CAGAGUGACAAGCUGGUUAAAG [hsa-miR-5586-3p]”, the “5+ nucleoli phenotype percent effect” value in the data set with MCF10A [1] is 27.8%. Further, the “one-nucleolus phenotype percent effect” value in the data set on MCF10A [2] is -14.6%. The percent viability in the data set with MCF10A [3] is 98.4%.
The like results for “UUCCAUGCCUCCUAGAAGUUCC [hsa-miR-5581-3p]” were, in that order, 13.6%, -19.3% and 57.3%.
The like results for UCUGAAAGAGCAGUUGGUGUU [hsa-miR-4766-5p] were, in that order, 2.75%, -18.9% and 56.2%.
For the sequence CUUUCAGUCGGAUGUUUGCAGC [hsa-miR-30a-3p], the “5+ nucleoli phenotype percent effect” value with MCF10A [1] is -31%. Moreover, in the data set on MCF10A [2], the “one-nucleolus phenotype percent effect” value came to 1.29%. For the same sequence, the percent viability in the data set with MCF10A [3] came out at 86.1%.
Turning to “UGUGAUAUCAUGGUUCCUGGGA [hsa-miR-3689a-5p]”, the “5+ nucleoli phenotype percent effect” value with MCF10A [1] is -5.22%. For the same sequence, the “one-nucleolus phenotype percent effect” value in the data set with MCF10A [2] stood at 6.87%. In the data set with MCF10A [3], the percent viability stood at 37.9%.
The like results for “AUGCACCUGGGCAAGGAUUCUG [hsa-miR-500a-3p]” were, in that order, -12.9%, -2.54% and 34.2%.
The like results for “AGGUUACCCGAGCAACUUUGCAU [hsa-miR-409-5p]” were, in that order, -20.6%, 42.3% and 21.8%.
Taken in the same sequence, the figures for AAAGUGCUGCGACAUUUGAGCGU [hsa-miR-372] were 52.4%, -16.8% and 64.2%.
In the case of UUAGGCCAUCAUCCCAUUAUGC [hsa-miR-5704], in the data set on MCF10A [1], the “5+ nucleoli phenotype percent effect” value is 46.5%. Also, the “one-nucleolus phenotype percent effect” value in the data set on MCF10A [2] is -23.2%. Also, the percent viability with MCF10A [3] came out at 181%.
Take GGAGAUGGAGGUUGCAGUG [hsa-miR-1273f]: in the data set with MCF10A [1], the “5+ nucleoli phenotype percent effect” value worked out at 1.46%. The “one-nucleolus phenotype percent effect” value in the data set on MCF10A [2] amounted to 20.3%. For the same sequence, the percent viability in the data set on MCF10A [3] is 62.9%.
Taken in the same sequence, the figures for CAAAAACUGCAUUACUUUUGC [hsa-miR-548j-3p] were 32.5%, -29.2% and 118%.
The like results for ACCCUAUCAAUAUUGUCUCUGC [hsa-miR-454-5p] were, in that order, 45.6%, -29.8% and 81.2%.
Taken in the same sequence, the figures for “CCGGUCCCAGGAGAACCUGCAGA [hsa-miR-4746-5p]” were 8.72%, 11.9% and 45.1%.
For the sequence “AUAACAUUGUAAAGCGCUUCUUUCG [hsa-miR-3143]”, the “5+ nucleoli phenotype percent effect” value with MCF10A [1] was found to be 49%. In the data set with MCF10A [2], the “one-nucleolus phenotype percent effect” value is -38.3%. Further, the percent viability in the data set on MCF10A [3] was 68.7%.
In the case of GACCGAGAGGGCCUCGGCUGU [hsa-miR-4523], the “5+ nucleoli phenotype percent effect” value with MCF10A [1] was 18.2%. Moreover, in the data set with MCF10A [2], the “one-nucleolus phenotype percent effect” value was -18%. Further, in the data set with MCF10A [3], the percent viability amounted to 67.7%.
For the sequence UCCAGCAUCAGUGAUUUUGUUG [hsa-miR-338-3p], the “5+ nucleoli phenotype percent effect” value in the data set on MCF10A [1] was found to be 26.3%. Besides, in the data set with MCF10A [2], the “one-nucleolus phenotype percent effect” value was -13.2%. Besides, in the data set with MCF10A [3], the percent viability was 98.2%.
On to UGGGCUGCUGAGAAGGGGCA [hsa-miR-6829-5p], for which the “5+ nucleoli phenotype percent effect” value with MCF10A [1] turned out to be 2.03%. Moreover, the “one-nucleolus phenotype percent effect” value with MCF10A [2] was 37.7%. For the same sequence, the percent viability in the data set on MCF10A [3] was determined as 7.58%.
The like results for UUUGGUCCCCUUCAACCAGCUG [hsa-miR-133a] were, in that order, -24.8%, 20.5% and 34.5%.
Turning to “GCAGUAGUGUAGAGAUUGGUUU [hsa-miR-3129-5p]”, in the data set with MCF10A [1], the “5+ nucleoli phenotype percent effect” value was 12.6%. Also, in the data set on MCF10A [2], the “one-nucleolus phenotype percent effect” value was -15%. Moreover, in the data set on MCF10A [3], the percent viability was 40.7%.
The like results for AUCCGCGCUCUGACUCUCUGCC [hsa-miR-937-3p] were, in that order, 8.26%, -5.97% and 78.1%.
Taken in the same sequence, the figures for “CAAAUGAGCUUAAUUUCCUUUU [hsa-miR-1252-3p]” were 37.8%, -15.1% and 160%.
Taken in the same sequence, the figures for AGACCAUGGGUUCUCAUUGU [hsa-miR-591] were 10.2%, -3.76% and 84.8%.
On to “UCCCUUGUCUCCUUUCCCUAG [hsa-miR-6780b-3p]”, for which the “5+ nucleoli phenotype percent effect” value in the data set on MCF10A [1] worked out at 32.5%. Moreover, in the data set with MCF10A [2], the “one-nucleolus phenotype percent effect” value was -21.9%. For the same sequence, the percent viability with MCF10A [3] amounted to 68.9%.
Taken in the same sequence, the figures for AAGUCCUGCUUCUGUUGCAG [hsa-miR-6838-3p] were -28.6%, -6.74% and 56.4%.
The like results for “AGCUUCUUUACAGUGCUGCCUUG [hsa-miR-103a-2-5p]” were, in that order, -36.6%, 7.49% and 36.7%.
The like results for “CAGGGCAGGGAAGGUGGGAGAG [hsa-miR-6879-5p]” were, in that order, 36.6%, -11.1% and 67.3%.
For AAUGUGGAAGUGGUCUGAGGCAU [hsa-miR-4657], in the data set on MCF10A [1], the “5+ nucleoli phenotype percent effect” value stood at 6.84%. Also, the “one-nucleolus phenotype percent effect” value in the data set with MCF10A [2] was 10.1%. For the same sequence, the percent viability in the data set on MCF10A [3] was 30.7%.
With GGGGGAAGAAAAGGUGGGG [hsa-miR-4271], the “5+ nucleoli phenotype percent effect” value with MCF10A [1] is 20.1%. Further, the “one-nucleolus phenotype percent effect” value with MCF10A [2] was -5.03%. Besides, the percent viability in the data set with MCF10A [3] stood at 72.2%.
The like results for “UAGGCCUUUAGAUCACUUAAA [hsa-miR-1245b-5p]” were, in that order, -5.02%, 19.2% and 21.5%.
Taken in the same sequence, the figures for UCUCUGCUCUGCUCUCCCCAG [hsa-miR-6728-3p] were 19.2%, -7.63% and 28.9%.
Taken in the same sequence, the figures for “UGAAGCCAGCUCUGGUCUGGGC [hsa-miR-4786-3p]” were -24%, 25% and 29%.
